Tests used:
[1] = Biodistribution in vivo and PET in healthy mice; conditions: for tissue uptake at 0.5 h / tissue uptake at 1 h / tissue uptake at 1.5 h: male, C57BL/6, mouse, in vivo, iv, 2 MBq, total radioactivity, Biodistribution, healthy male C57BL/6 mice, penile vein injection, gamma counter, mean of n = 3; for tissue uptake at 0.5 h: 30 min; for tissue uptake at 1 h: 60 min; for tissue uptake at 1.5 h: 90 min
Procedure: All murine experiments were approved by the Animal Care and Use Committee of the University of Groningen under license protocol number 2114768-01-001. In vivo biodistribution was performed in male C57BL/6 mice (age 8 weeks, 25 g). Per tracer, the animals were divided in three groups based on the tracer distribution times (30 min, 60 min, and 90 min). […] Each experimental arm (i.e. time point) consisted of three animals. […] Tracer was administered at t = 0 via penile vein injection (2.0 ± 0.9 MBq in 100 µL 0.9% saline solution, Supplemental Table 2). After tracer administration, the animals were transferred to a Siemens Focus 220 microPET small animal scanner (Siemens, Munich, Germany) and scanned for the designated time, followed by a transmission scan of 10 min for attenuation correction. PET data were normalized and corrected for decay, after which the PET data were reconstructed using OSEM2D-Z1-SC-256. The PET data frames used for reconstruction were: 6 × 10 s, 4 × 30 s, 2 × 60 s, 120 s, 180 s, 4 × 300 s, 3 × 600 s, 1200 s or until the designated scan time was reached, taking into account a 10-min transmission scan following the emission scan. Next, animals were terminated, and organs harvested to assay biodistribution in a calibrated gamma counter (Wizard2, Perkin Elmer, Waltham, United States).

[2] = Distribution coefficient LogD7.4, shake-flask n-octanol/PBS; assay type: physicochemical; conditions: shake-flask n-octanol/PBS pH 7.4, 500 µL each, 10 µL tracer in saline, vortexed 30 s, shaken 15 min, gamma counter, mean ± SD
Procedure: The tracer distribution coefficient in n-octanol/PBS pH 7.4 (LogD7.4) was determined using a shake-flask methodology. To an Eppendorf tube containing 500 µL n-octanol and 500 µL PBS, 10 µL tracer solution in saline was added. The vial was vortexed for 30 s and placed on an Eppendorf shaker for 15 min. After incubation, layers were separated by centrifugation (1 min at 10.000 rpm) and a fraction of the n-octanol layer was pipetted off. To minimize contamination of the bottom layer with the n-octanol layer, the bottom PBS layer was collected by puncturing the bottom of the Eppendorf tube with a 22G needle and aspirating a fraction of the PBS layer. Collected fractions were weighted to correct for collected volume and subsequently measured on a calibrated gamma counter and corrected for decay. LogD7.4 was calculated as [drawing 1] .

Gram-positive bacteria = test: Tracer binding to test panel of clinically relevant bacteria, Gram-positive; set-up: species or system C. acnes, E. faecalis, S. aureus, S. capitis, S. epidermidis; conditions: summary table
Procedure: Clinical isolates of E. cloacae, S. capitis, S. aureus, as well as type strains of E. coli, E. faecalis, K. pneumoniae, P. aeruginosa and S. epidermidis were grown under aerobic conditions in brain heart infusion broth. A clinical isolate of the anaerobic bacterium C. acnes was grown on plate in an anaerobic chamber, and subsequently cultured in liquid medium with minimal headspace. Samples from fresh bacterial cultures were normalized to an OD600 of 1.0, fixed in PBS with 0.5% paraformaldehyde (PFA) for 10 min at room temperature, and resuspended in 1 mL sterile PBS. The fixated bacteria were incubated with tracer (133 kBq per mL, 42.8 pg and 0.6 pg of [^18F]BODIPY-FL-vancomycin and [^18F]PQ-VE1-vancomycin, respectively) and washed twice with sterile PBS. […] Measurements were corrected for background and decay. Results are reported as percentage of the total tracer added.

[3] = Summary of tracer stability in vitro and in vivo; conditions: summary table, in vitro and in vivo
Procedure: Stability of the tracers was determined in PBS and human plasma. In a typical experiment, 1 MBq of radioactivity (10–20 µL) was added to 250 µL of PBS or human plasma. Samples were heated to 37 °C on a shaker and sampled at fixed intervals. For samples containing human plasma, protein was precipitated using two volumes of cold MeCN. Precipitated samples were briefly centrifuged to pellet the insoluble fraction and supernatant was used for stability assessment. Supernatant (1 µL) was loaded on a TLC plate and imaged using BAS-IP MS 2025 E plates (Fujifilm, Tokyo, Japan) on an Amersham Typhoon Biomolecular Imager (GE Healthcare Bio-Sciences Corp, Chicago, United States) equipped with a phosphor imaging stage. [^18F]BODIPY-FL-vancomycin has an Rf of 0.68 (petroleum ether/MeOH 3:1), [^18F]FB-vancomycin has an Rf of 0.66 (2 M NaOAc/MeOH 5:1). For [^18F]PQ-VE1-vancomycin, conditions described in [44] were used.

[4] = tested on: S. aureus USA300 MRSA strain; test: Competition with unlabeled vancomycin; assay type: binding, Staphylococcus aureus; conditions: S. aureus USA300, OD600 0.2, 125 kBq tracer per mL, 30 min incubation, gamma counter
Procedure: [^18F]FB-vancomycin was excluded due to its limited in vitro and in vivo stability. On the day of the experiment, a fresh culture was started in 10 mL of TSB and grown to an OD600 of 2.0. […] Bacteria were added to the dilutions to obtain a final OD600 of 0.2 and the vial was briefly vortexed to ensure proper mixing. Tracer was added (125 kBq per mL, 40.3 pg and 0.5 pg of [^18F]BODIPY-FL-vancomycin and [^18F]PQ-VE1-vancomycin, respectively) and the vial was vortexed again. After 30 min incubation, aliquots were collected in 2 mL Eppendorf tubes and washed twice with PBS by centrifugation. […] Measurements were corrected for background and decay. Results are reported as 10^3 counts per s (kBq).

Which results are given for `CN[C@H](CC(C)C)C(=O)N[C@H]1C(=O)N[C@@H](CC(N)=O)C(=O)N[C@H]2C(=O)N[C@H]3C(=O)N[C@H](C(=O)N[C@H](C(=O)O)c4cc(O)cc(O)c4-c4cc3ccc4O)[C@H](O)c3ccc(c(Cl)c3)Oc3cc2cc(c3O[C@@H]2O[C@H](CO)[C@@H](O)[C@H](O)[C@H]2O[C@H]2C[C@](C)(NC(=O)c3ccc4c5c(c6ccccc6c4c3)OCC(OCCF)O5)[C@H](O)[C@H](C)O2)Oc2ccc(cc2Cl)[C@H]1O` (stereo partly shown) [[^18F]PQ-VE1-vancomycin]?
Crossing of the blood-brain barrier (BBB) ([1]; healthy mice, intravenous injection): no substantial signal was observed in the brain; Accumulation ([1]; healthy mice, summary table): Accumulation in spleen, liver and lungs; Clearance ([1]; healthy mice, summary table): Slow renal clearance; Muscle uptake ([1]; healthy mice, summary table): Low muscle uptake; tissue uptake at 0.5 h ([1]; Bladder): 3.12 %ID/g; tissue uptake at 1 h ([1]; Bladder): 3.83 %ID/g; tissue uptake at 1.5 h ([1]; Bladder): 3.73 %ID/g; tissue uptake at 0.5 h ([1]; Bone): 1.14 %ID/g; tissue uptake at 1 h ([1]; Bone): 1.34 %ID/g; tissue uptake at 1.5 h ([1]; Bone): 0.75 %ID/g; tissue uptake at 0.5 h ([1]; Brain): 0.14 %ID/g; tissue uptake at 1 h ([1]; Brain): 0.14 %ID/g; tissue uptake at 1.5 h ([1]; Brain): 0.17 %ID/g; tissue uptake at 0.5 h ([1]; Fat): 0.81 %ID/g; tissue uptake at 1 h ([1]; Fat): 0.79 %ID/g; tissue uptake at 1.5 h ([1]; Fat): 0.55 %ID/g; tissue uptake at 0.5 h ([1]; Heart): 3.54 %ID/g; tissue uptake at 1 h ([1]; Heart): 2.6 %ID/g; tissue uptake at 1.5 h ([1]; Heart): 1.82 %ID/g; tissue uptake at 0.5 h ([1]; Kidneys): 3.37 %ID/g; tissue uptake at 1 h ([1]; Kidneys): 2.73 %ID/g; tissue uptake at 1.5 h ([1]; Kidneys): 2.04 %ID/g; tissue uptake at 0.5 h ([1]; Large intestine): 2.28 %ID/g; tissue uptake at 1 h ([1]; Large intestine): 1.81 %ID/g; tissue uptake at 1.5 h ([1]; Large intestine): 1.98 %ID/g; tissue uptake at 0.5 h ([1]; Liver): 10.5 %ID/g; tissue uptake at 1 h ([1]; Liver): 9.33 %ID/g; tissue uptake at 1.5 h ([1]; Liver): 7.72 %ID/g; tissue uptake at 0.5 h ([1]; Lungs): 4.71 %ID/g; tissue uptake at 1 h ([1]; Lungs): 3.8 %ID/g; tissue uptake at 1.5 h ([1]; Lungs): 3.21 %ID/g; tissue uptake at 0.5 h ([1]; Muscle): 0.86 %ID/g; tissue uptake at 1 h ([1]; Muscle): 0.85 %ID/g; tissue uptake at 1.5 h ([1]; Muscle): 0.6 %ID/g; tissue uptake at 0.5 h ([1]; Plasma): 6.12 %ID/g; tissue uptake at 1 h ([1]; Plasma): 4.47 %ID/g; tissue uptake at 1.5 h ([1]; Plasma): 2.88 %ID/g; tissue uptake at 0.5 h ([1]; Small intestine): 2.99 %ID/g; tissue uptake at 1 h ([1]; Small intestine): 2.19 %ID/g; tissue uptake at 1.5 h ([1]; Small intestine): 1.79 %ID/g; tissue uptake at 0.5 h ([1]; Spleen): 7.89 %ID/g; tissue uptake at 1 h ([1]; Spleen): 11.5 %ID/g; tissue uptake at 1.5 h ([1]; Spleen): 8.39 %ID/g; tissue uptake at 0.5 h ([1]; Stomach): 2.28 %ID/g; tissue uptake at 1 h ([1]; Stomach): 2.45 %ID/g; tissue uptake at 1.5 h ([1]; Stomach): 1.92 %ID/g; tissue uptake at 0.5 h ([1]; Whole blood): 3.71 %ID/g; tissue uptake at 1 h ([1]; Whole blood): 2.56 %ID/g; tissue uptake at 1.5 h ([1]; Whole blood): 1.86 %ID/g; LogD7.4 [2]: -0.51 ± 0.07 (n = 9); Binding to Gram-positive bacteria in vitro (Gram-positive bacteria): Binding to Gram-positive bacteria in vitro; Stability [3]: Stable in vitro and in vivo up to 2 h.; Tracer binding to S. aureus at a concentration of 1024 µg/mL vancomycin [4]: reduced to baseline; Tracer binding to S. aureus at vancomycin concentrations below 2 µg/mL [4]: not significantly inhibited; Tracer binding to S. aureus at vancomycin concentrations of up to 64 µg/mL [4]: signal over background was still detected
